Assay results taken from the supplement of paper PMC5998384.

Key:
HeLa Kyoto [1] = assay: solubility in G1/S (NP-40 vs SDS abundance) (log2 ratio); higher = more soluble; conditions: cell cycle stage: G1/S
HeLa Kyoto [2] = assay: melting temperature (median over replicates), in situ; higher = more thermally stable
HeLa Kyoto [3] = assay: solubility change mitosis vs G1/S (difference of NP-40 vs SDS log2 ratios) (log2 ratio difference); higher = more soluble in mitosis
HeLa Kyoto [4] = assay: thermal stability score vs G1/S (z-score of summed log2 fold changes over temperatures); higher = more thermally stable than in G1/S
[5] = cell cycle stage: early G1 (4.5 h after nocodazole release)
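For melting temperature (median over replicates), in situ in this document: HeLa Kyoto cells synchronized by double thymidine or nocodazole block, proteins quantified by TMT10plex mass spectrometry, three independent biological replicates.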
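For solubility change mitosis vs G1/S (difference of NP-40 vs SDS log2 ratios) in this document: synchronized HeLa Kyoto cells (double thymidine block for G1/S, nocodazole release for mitosis), protein amounts in NP-40 versus SDS lysates quantified by mass spectrometry, three biological replicates.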
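For solubility in G1/S (NP-40 vs SDS abundance) in this document: HeLa Kyoto cells arrested at G1/S by double thymidine block, proteins quantified by TMT10plex mass spectrometry in mild NP-40 versus SDS extracts, three biological replicates.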
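For thermal stability score vs G1/S (z-score of summed log2 fold changes over temperatures) in this document: synchronized HeLa Kyoto cells, proteins quantified by TMT10plex mass spectrometry, three biological replicates, mitosis taken 0.5 h after nocodazole release, G1/S directly after double thymidine block.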

Row | Sequence | solubility in G1/S (log2) (HeLa Kyoto [1]) | melting temperature (HeLa Kyoto [2]; cell cycle stage: G1/S) | melting temperature (HeLa Kyoto [2]; cell cycle stage: mitosis) | solubility change mitosis (log2) (HeLa Kyoto [3]) | thermal stability score (HeLa Kyoto [4]; [5]) | thermal stability score (HeLa Kyoto [4]; cell cycle stage: mitosis)
1 | MKPGFSPRGGGFGGRGGFGDRGGRGGRGGFGGGRGRGGGFRGRGRGGGGGGGGGGGGGRGGGGFHSGGNRGRGRGGKRGNQSGKNVMVEPHRHEGVFICRGKEDALVTKNLVPGESVYGEKRVSISEGDDKIEYRAWNPFRSKLAAAILGGVDQIHIKPGAKVLYLGAASGTTVSHVSDIVGPDGLVYAVEFSHRSGRDLINLAKKRTNIIPVIEDARHPHKYRMLIAMVDVIFADVAQPDQTRIVALNAHTFLRNGGHFVISIKANCIDSTASAEAVFASEVKKMQQENMKPQEQLTLEPYERDHAVVVGVYRPPPKVKN [FBL] | -1.97 | 52.9 °C | 51.5 °C | 1.49 | -1.06 | -3.39
2 | MSLTSSSSVRVEWIAAVTIAAGTAAIGYLAYKRFYVKDHRNKAMINLHIQKDNPKIVHAFDMEDLGDKAVYCRCWRSKKFPFCDGAHTKHNEETGDNVGPLIIKKKET [CISD1] | 0.633 | 57.1 °C | 55.3 °C | 0.0262 | -0.277 | -1.59
3 | MEKSNETNGYLDSAQAGPAAGPGAPGTAAGRARRCAGFLRRQALVLLTVSGVLAGAGLGAALRGLSLSRTQVTYLAFPGEMLLRMLRMIILPLVVCSLVSGAASLDASCLGRLGGIAVAYFGLTTLSASALAVALAFIIKPGSGAQTLQSSDLGLEDSGPPPVPKETVDSFLDLARNLFPSNLVVAAFRTYATDYKVVTQNSSSGNVTHEKIPIGTEIEGMNILGLVLFALVLGVALKKLGSEGEDLIRFFNSLNEATMVLVSWIMWYVPVGIMFLVGSKIVEMKDIIVLVTSLGKYIFASILGHVIHGGIVLPLIYFVFTRKNPFRFLLGLLAPFATAFATCSSSATLPSMMKCIEENNGVDKRISRFILPIGATVNMDGAAIFQCVAAVFIAQLNNVELNAGQIFTILVTATASSVGAAGVPAGGVLTIAIILEAIGLPTHDLPLILAVDWIVDRTTTVVNVEGDALGAGILHHLNQKATKKGEQELAEVKVEAIPNCKSEEETSPLVTHQNPAGPVASAPELESKESVL [SLC1A4] | -0.527 | 58.9 °C | 62.8 °C | 0.0714 | -1.93 | -4.67
4 | MKRQGASSERKRARIPSGKAGAANGFLMEVCVDSVESAVNAERGGADRIELCSGLSEGGTTPSMGVLQVVKQSVQIPVFVMIRPRGGDFLYSDREIEVMKADIRLAKLYGADGLVFGALTEDGHIDKELCMSLMAICRPLPVTFHRAFDMVHDPMAALETLLTLGFERVLTSGCDSSALEGLPLIKRLIEQAKGRIVVMPGGGITDRNLQRILEGSGATEFHCSARSTRDSGMKFRNSSVAMGASLSCSEYSLKVTDVTKVRTLNAIAKNILV [CUTC] | -0.00165 | 54.4 °C | 54.1 °C | -0.0574 | -0.146 | -0.357
